# From PMC7948952, “Structural basis for multifunctional roles of human Ints3 C-terminal domain” (The Journal of Biological Chemistry, 2020)
# B1: dT30 (ssDNA)
# DNA: TTTTTTTTTTTTTTTTTTTTTTTTTTTTTT
# Target: Ints3-555-976 R788E/K789E (human, UniProt Q68E01-2 555-976, R788E;K789E)
# Experiment: EMSA; not reduced vs WT (WT itself weak); up to 200 uM; 20 mM Hepes pH 7.4, 100 mM NaCl, 1 mM MgCl2, 1 mg/ml BSA, 2 mM DTT, 5% glycerol; on ice 30 min; 7.5 nM probe; native 5% PAGE in 1X TBE
# Conditions: protein: recombinant; chain copies: 2; label: 5' 32P; single strand
# Ints3-555-976 R788E/K789E, sequence (Q68E01 556-977 R789E/K790E): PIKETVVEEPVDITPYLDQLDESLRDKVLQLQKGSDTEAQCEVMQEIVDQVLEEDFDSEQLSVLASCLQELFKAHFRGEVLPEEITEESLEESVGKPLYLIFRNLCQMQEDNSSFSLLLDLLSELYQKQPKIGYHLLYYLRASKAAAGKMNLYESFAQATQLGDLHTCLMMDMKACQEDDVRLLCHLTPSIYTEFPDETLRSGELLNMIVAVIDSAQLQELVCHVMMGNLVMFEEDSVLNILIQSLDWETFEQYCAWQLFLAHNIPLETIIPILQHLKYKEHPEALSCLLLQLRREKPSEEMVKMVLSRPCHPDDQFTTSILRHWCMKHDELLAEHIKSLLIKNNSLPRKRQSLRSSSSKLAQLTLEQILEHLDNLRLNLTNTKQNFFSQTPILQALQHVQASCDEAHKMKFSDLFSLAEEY
binder,measurement,value
B1,binding result,binds
